According to US20200199207A1 (MABYLON, published 2020):

Assays:
Ara h 2 [1] = target: T1, Ara h 2 (peanut, UniProt Q6PSU2 22-172); assay: competition ELISA on coated Ara h 2; competitor: Patient B serum IgE
T1 construct: also called full length Ara h 2
T1 sequence (looked up): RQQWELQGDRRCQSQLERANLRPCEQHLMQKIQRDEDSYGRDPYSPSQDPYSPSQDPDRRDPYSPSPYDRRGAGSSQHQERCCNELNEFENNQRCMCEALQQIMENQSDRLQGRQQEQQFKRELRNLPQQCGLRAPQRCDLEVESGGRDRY
Method: (§1) Microplates were coated with […] of Ara h 1, Ara h 2, Ara h 3, or Ara h 6, overnight at 4° C. After washing with PBS-Tween 0.05% and blocking with 2% BSA, plates were incubated with increasing concentrations of peanut human IgG antibodies for 1 h at room temperature. Subsequently, plates were incubated with different sera dilutions or different concentrations of murine antibody (as positive control). IgE levels were detected using anti-human HRP-conjugated Fc-epsilon-specific secondary antibody (Abcam, Cambridge, UK) followed by addition of TMB solution (TMB, Sigma, Buchs, Switzerland). Binding of murine antibodies was detected using goat anti-mouse IgG (H+L)-HRP (Jackson ImmunoResearch, West Grove, Pa., USA).

Ara h 2 [2] = target: T1, Ara h 2; assay: competition ELISA on coated Ara h 2; competitor: Patient D serum IgE
Method: as §1

B1: h4B2 (antibody, V domains shown)
VH: QVQLQEAGPRLVKPSQTLSVTCTVSGASITIGGYYWSWIRQHPGKGLEWMGYIYSNGRTYYNPSLKSRIAMSIDTSKNQFSLKLTSVTAADTAIYFCAREAWETPLWGQGTLITVSS
VL: DIQMTQSPSSLSASVGDRVTITCQANQDIVNSLNWFQHKPGTAPKVLIYDASKLETGVPSRFSGSGSGTHFTFTISGLQPEDFATYFCQQYENLPHTFGQGTKLEIR
notes: Recombinant human IgG; also called hMAb 4B2
- % inhibition of IgE binding (Ara h 2 [1]): 30.6%
- % inhibition of IgE binding (Ara h 2 [2]): 9.23%

B2: h12G10 (antibody, human IgG1, V domains shown)
VH: EVQLLESGGRLLRPGGSLSLSCVASGFYFGDFGMSWVRQVPGKGLEWVSGIDWSGRSTGYVDSMKGRLTISRDNDKSSLYLQMNDLRGEDTAVYYCARVGRLCSGDSCDSMGAFDLWGQGTMVTVSS
VL: DIQLTQSPSTLSASIGDSVTITCRASQNIDNWLAWYQQKPGKAPRLLIYKASSLGSGVSSKFRGSGFGTEFTLTITSLQPDDFATYYCQKSNGYSRTFGQGTKVDIK
notes: Recombinant human IgG; also called hMAb 12G10
- % inhibition of IgE binding (Ara h 2 [1]): 31.2%
- % inhibition of IgE binding (Ara h 2 [2]): 35.7%

B3: h37D5 (antibody, V domains shown)
VH: EEQLVESGGRLLRPGESLSLSCAAVGFNFGDFGMAWVRQPPGKGLEWVAGINWSGHSTGFVDSMKGRLTISRDSAKSSLFLQMNSLRGEDTAVYYCARVGRLCSGDICDSMGAFDLWGQGTMVTVSS
VL: DIQMTQSPSTLSASIGDRVTITCRASQTIDNWLAWYQQRPGKAPKLLIYQASSLQSGVSSRFRGSGSGTEFTLTITSLQPDDFATYYCQKSNGYSRTFGQGTKVEIK
notes: Recombinant human IgG; also called hMAb 37D5
- % inhibition of IgE binding (Ara h 2 [1]): 29.6%
- % inhibition of IgE binding (Ara h 2 [2]): 35.5%

B4: h32B10 (antibody, V domains shown)
VH: QVQLVQSGAEVKKPGASVKVSCRASGYIFRNFDINWVRQATGQGLEWMGWMSPKSGDTGYAQKFQGRVTMTRDTSINTAYMELSSLTSEDSAVYYCARGVDGTNWGQGTRVTVSS
VL: DIVMTQSPDSLGVSLGERATISCKSSQSILDNSNNKNFIAWFQQKPGQPPKLLIYWASARESGVPDRFSGSGSGTEFTLTINSLQAEDVAVYYCYQYYSTPHTFGQGTKLDLR
notes: Recombinant human IgG; also called hMAb 32B10
- % inhibition of IgE binding (Ara h 2 [1]): 26.7%
- % inhibition of IgE binding (Ara h 2 [2]): 8.5%
